In patent US20260258125A1 one finds IC50 of in vitro cytotoxicity of the ADC (CellTiter-Glo, 6 days), Internalization of pHAb-dye-labelled antibody, MFI (37° C.-4° C.)/DAR and EC50 data, which are given here for three substances.

The target of experiment [1] is human CEACAM5 on 293T cells (293T-huCEACAM5 cells) (human) (UniProt P06731). As to the kind of experiment: cell-based or functional assay. Further details: unit not given beside the values.
Experiment [2] addresses human CEACAM6 on 293T cells (293T-huCEACAM6 cells) (human) (UniProt P40199). As to the kind of experiment: cell-based or functional assay. More on the design: unit not given beside the values.
For experiment [3], the target named is membrane-bound endogenous human CEACAM5 and CEACAM6 on BxPC3 cells. The experiment is described as follows: cell-based or functional assay. Further details: unit not given beside the values.
The target in experiment [4] is membrane-bound endogenous human CEACAM5 and CEACAM6 on LS 174T cells. As to the kind of experiment: cell-based or functional assay. Further details: unit not given beside the values.
The target of experiment [5] is membrane-bound endogenous human CEACAM5 and CEACAM6 on BxPC3 cells. The experiment is described as follows: cell-based or functional assay.
Experiment [6] deals with membrane-bound endogenous human CEACAM5 and CEACAM6 on LS 174T cells. The experiment is described as follows: cell-based or functional assay.
The target in experiment [7] is membrane-bound endogenous human CEACAM5 and CEACAM6 on BxPC3 cells. As to the kind of experiment: flow cytometry on BxPC3 cells. (In general: In flow cytometry, cells or beads pass a laser one at a time.)
For experiment [8], the target named is membrane-bound endogenous human CEACAM5 and CEACAM6 on LS 174T cells. The experiment is described as follows: flow cytometry on LS 174T cells.
For experiment [9], the target named is antigen of the anti-CEACAM5/6 antibodies on HPAC cells. As to the kind of experiment: cell-based or functional assay.
In experiment [10] the target is human CEACAM5 on 293T cells (293T-huCEACAM5 cells) (human) (UniProt P06731). The experiment is described as follows: cell-based or functional assay.
Experiment [11] deals with human CEACAM6 on 293T cells (293T-huCEACAM6 cells) (human) (UniProt P40199). The experiment is described as follows: cell-based or functional assay.
Sequence of human CEACAM6 on 293T cells (293T-huCEACAM6 cells) (human) (P40199 35-320): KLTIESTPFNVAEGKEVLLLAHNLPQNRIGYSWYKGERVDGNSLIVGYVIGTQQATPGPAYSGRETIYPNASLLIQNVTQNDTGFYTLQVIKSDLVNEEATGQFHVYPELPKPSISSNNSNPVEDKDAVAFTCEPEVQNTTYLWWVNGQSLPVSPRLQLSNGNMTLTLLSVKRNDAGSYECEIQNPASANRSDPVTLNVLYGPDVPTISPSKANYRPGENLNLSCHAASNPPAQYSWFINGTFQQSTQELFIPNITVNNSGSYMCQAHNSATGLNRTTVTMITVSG

Sequence of human CEACAM5 on 293T cells (293T-huCEACAM5 cells) (human) (P06731 35-685 limits assumed): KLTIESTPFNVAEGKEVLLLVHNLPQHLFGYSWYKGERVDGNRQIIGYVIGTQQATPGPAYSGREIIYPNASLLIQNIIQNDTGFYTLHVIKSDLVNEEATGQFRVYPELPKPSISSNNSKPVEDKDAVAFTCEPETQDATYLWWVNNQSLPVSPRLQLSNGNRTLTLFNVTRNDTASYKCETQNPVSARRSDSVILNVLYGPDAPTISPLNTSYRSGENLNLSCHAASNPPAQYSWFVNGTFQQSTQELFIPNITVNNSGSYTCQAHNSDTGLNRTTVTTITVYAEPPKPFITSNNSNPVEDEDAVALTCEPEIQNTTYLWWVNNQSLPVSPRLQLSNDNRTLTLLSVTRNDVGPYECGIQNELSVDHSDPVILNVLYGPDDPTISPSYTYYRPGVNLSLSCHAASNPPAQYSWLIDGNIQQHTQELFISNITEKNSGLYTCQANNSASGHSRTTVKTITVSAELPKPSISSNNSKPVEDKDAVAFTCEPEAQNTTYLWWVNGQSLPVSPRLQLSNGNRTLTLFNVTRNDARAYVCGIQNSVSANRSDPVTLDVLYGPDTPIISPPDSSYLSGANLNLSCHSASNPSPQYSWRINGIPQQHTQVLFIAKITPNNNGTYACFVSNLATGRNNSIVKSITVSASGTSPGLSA

With IgG-MMAE, the IC50 of in vitro cytotoxicity of the ADC (CellTiter-Glo, 6 days) amounted to 66 in experiment [1], 72 in [2], 100 in experiment [3] and 700 in experiment [4].

PR303561 (Tusamitamab) (antibody): the figures for the Internalization of pHAb-dye-labelled antibody, MFI (37° C.-4° C.)/DAR in experiment [5] and in [6] were 8230 and 1320, respectively. The EC50 (commonly the concentration at which the effect is half-maximal) in experiment [7] came to 3.06 nM; in [8] it was 1.74 nM.

“non-relevant IgG isotype control (Crownbio, hIgG1) (antibody)”: the Internalization of pHAb-dye-labelled antibody, MFI (37° C.-4° C.)/DAR in experiment [9] was 3010; in experiment [10], 888; in [11] it was 975; in [5], 0; in experiment [6], 468.
